The data set is described as follows: soluble on expression in E. coli; label from the status in PepcDB or PDB records.
In the case of “MSLNMFWFLPTHGDGHYLGTEEGSRPVDHGYLQQIAQAADRLGYTGVLIPTGRSCEDAWLVAASMIPVTQRLKFLVALRPSVTSPTVAARQAATLDRLSNGRALFNLVTGSDPQELAGDGVFLDHSERYEASAEFTQVWRRLLQRETVDFNGKHIHVRGAKLLFPAIQQPYPPLYFGGSSDVAQELAAEQVDLYLTWGEPPELVKEKIEQVRAKAAAHGRKIRFGIRLHVIVRETNDEAWQAAERLISHLDDETIAKAQAAFARTDSVGQQRMAALHNGKRDNLEISPNLWAGVGLVRGGAGTALVGDGPTVAARINEYAALGIDSFVLSGYPHLEEAYRVGELLFPLLDVAIPEIPQPQPLNPQGEAVANDFIPRKVAQS”, the “soluble on expression in E. coli” value is “soluble”.
With “MSLNNKVLVTGGTGFVGMRIISRLLEQGYEVQTTIRDLSKADKVIKTMQDNGISTERLMFVEADLSQDEHWDEAMKDCKYVLSVASPVFFGKTDDAEVMAKPAIEGIQRILRAAEHAGVKRVVMTANFGAVGFSNKDKNSITNESHWTNEDEPGLSVYEKSKLLAEKAAWDFVENENTIVEFATINPVAIFGPSLDAHVSGSFHLLENLLNGSMKRVPQIPLNVVDVRDVAELHILAMTNEQANGKRFIATADGQINLLEIAKLIKEKRPEIAQKVSTKKLPDFILSLGAKFNHQAKEGKLLLDMNRNVSNERAKTLLGWEPIATQEEAILAAIDSMAKFHLIEGHHHHHH”, the “soluble on expression in E. coli” value was “soluble”.
With “MSLNNMRLFKKSLLAVTVTLATQQAFAAGFQLNAQSATGLGRAFAGDAVIADNAAVMSRNPAAMALFDEMALSLGFETITTMIDVKNVSYRGVLGNSVSVQDTDDVGGTSVAPNIHLIVPVNEQFAWGVNAYSNFGTKTEFSDSYPASEYGGLTDVKSFNLGLAGSYRVNKEWSFGAGLDLIYGQGTMKRIAGTSFPASTIVVNPTTVIPARGTSLLNVDKADGWAVGFNLGTVYEMDENNRFGLSYRYSPEFKAKDDYGQEITLPLPDIAEFSGFHKIENTQFAVHYSVQWIGWSAFDKIEFRNLVTSRSSVGALTKGSYDKMYEWQDGWHYSIGGTYYLNSDWTLRAGYMYDTSAQDSRTSISVPDSDRQWLSAGFTYNIDDKSNVDFGFTYLMGKDVAVSENDAGSKLTATTHADAILLGLQYSRTFEGGSHHHHHH”, the “soluble on expression in E. coli” value is given as “soluble”.
Then “MSLNNPYIKMIGAHGTALGDIYGHVTLENFDNTDIYGTEINLVGQINIGETDFNLYGQVFDKSMPVWGETNTLLGLSWDKNYDNTYVQLAFAAHIVNATYKAFDSNFDEQGFNGGYAYLNISHDLSLFDQDFKFVWWQEFYFGRNEQYLELAGDMEDFGFNGQLRANWIINNNWSVGVSYRYAENNLGKKGYHDAFFYSVQYKFEGHHHHHH”, with “not soluble”; and “MSLNPRLFSPHIIRSLLDLDAYKINMMQAIHHFYPDVSVRYELIVRSEEDASGLLDAIRQEIAHLGTLRFSDADIHYLTQHAPHLKATFLQSLRYFHFVPQEQVEMGIVKQGGKQQLRISIRGSWRDTILYETLVMAIVSEVRSRQRWAEVPADLPLKVLKTKLDQLKAEIERRGINNFSLTEMGTRRRFSSQVQRDVLACLKQEIPQWVLGTSNYHFAREFDLKPIGTIAHEWFMGHQALVNERDSQQVALERWLTAFDGMLAIAPTDTLTIDAFLNDFNRHLANAYDGVRHDSGCPFRWGDKMIAHYQQLGIDPTTKLFIFSDGLDFDQALELCEYFAGRVKISFGIGTFLTNDLANWRNAAGVEYRPLSIVIKLAECQGRPVAKISDQPEKAMCEDPIFLANLKRRFNIELDVDALIQELRHQKRSPRHYISAAEGHHHHHH”, with “soluble”; and “MSLNPYKIEVVDHTKLVESNTSINEKEEKSISSVEERANLYEDDEENDEEEDSNEFASEAIPFYSVLGEKDYFYFPSEQIQEHYSKRIPGYFMPNNYYCVNYDFTYNPVKKNVNGDEDDDDDEEEEEGDSGTDRKVKTQEKFRASFIFIDTWALMVGFPIIRNYRAFREQFNWLSKTLYESAKKSDWIFVVGHHPLISSGRRSDNYSYEEHSFHDIIRDFLFNYHVDAYFSAHDHLMEYIKFGSVDLFINGSSSRVLFDNSSMGRGYFGKIIGKLYPLSCYVLKTIHTGLKPKGCNINRYSKWYNKSDIGFSTHKLTKDELVTQFISSRTGKPLSEKIITKNKKHEREGHHHHHH”, with “soluble”.
In the case of “MSLNQSFTQFGDGYASTGTLNIGDVLDIMIWEAPPAVLFGGGLSSMGSGSAQQTKLPEQLVTARGTVSVPFVGDISVVGKTPGQVQEIIKGRLKKMANQPQVMVRLVQNNAANVSVIRAGNSVRMPLTAAGERVLDAVAAVGGSTANVQDTNVQLTRGNVVRTVALEDLVANPRQNILLRRGDVVTMITNPYTFTSMGAVGRTQEIGFSARGLSLSEAIGRMGGLQDRRSDARGVFVFRYTPLVELPAERQDKWIRQGYGSEAEIPTVYRVNMADAHSLFSMQRFPVKNKDVLYVSNAPLAEVQKFLSFVFSPVTSGANSINNLTNEGHHHHHH”, the “soluble on expression in E. coli” value is “not soluble”.
Then “MSLNTRRLLDLSVTLDNNPYTDPPPLLPKIDYMDHQQGWPEMAAMFPGLRKEDLPGDESWAAERLQITTHSGTHMDAPWHYASTTDGGKPAFGIDELPLEWCLQPGVKLDFRHLPDGHVVTAAQVEAELARIGHELQPLDIVLVNTRAGSLFGQPGYLEAGVGMGREATLYLLERGVRVVGTDAWSWDAPFKFTRERFSETGDASIIWEGHKAGRDIGYGQMEKLANLEQLPADGFLVSCFPYKIRHASAGFVRAVAIFDLEHHHHHH”, with “soluble”.
Take “MSLNVDVLLKNVWLYQTVTQTFVQRNVAIKNDKFYYIYEEENVNLQPQKTINAENQWMIPGLIDAHMHIESSMTTPTIFSKAVVRYGVTTVIADAHEMANVFGLEGLKAFMAAETELDIFHAIPSSVPSTTPELETTGGIIGLAEVAELLKEPKVICLGEAMNFKGISYEPDSLIRQIIDLCQKQRPTMPLEGHCPKIEDQELADFLYSGITSDHTHQFPKTLKEKIEAGVFIQFQNKSITPENIQVIVDNDFYNYASIITDDVMADDLLKGHLNENVKKAVHAGLPIEKAIYMATYTPAKRMGLHDRGEIAPGKKADFLLLNDLESFDINTVYKSGKVVFEKGEPFHYPEKIEEFPATYQQTIQCKKLTEEDLLLKVATTKETVRCNVIQKQEIGTFTERITKEIPVENGLLQWQKANCALLIVMERYGKNGNISFSLMDQPLSEKGAIATTWAHDHHNLMVMGNTIEDILLAQNELLAMQGGYLVASDQQVMATCPLPIGGILSQAPIEQLGASLQKVRQAMQALGYQNMNEIMSFSTLSLPVSPAIKVTDFGMMDTKSQRFYPLVFPEDGVLLHENTHEGHHHHHH”: the “soluble on expression in E. coli” value is recorded as “soluble”.
For “MSLNVLIVDDEKLIRQGIINFFDWEKEGFQIVGEAANGKDALELISKNEPHIVMTDIVMPVMDGIDLVKRVKRDFPEVEIIVLSSFEEFEYVRSTFHSGVADYILKPRLNEKDLLKTLSEVRGKIPALAKVDSPSRAVPSISDQFEKILNGHAPLSQDDTGEKRFPKGPYRLAVITPIEEQDVHRRKQHLDEREQAITGIDVVCSIEKEGDAVLLLPLEGDVSSSMKQALDDFLKGRDAHALLVSSPFSSIYEAKEVYERDIPLLKQYSFYLPDTPLLIYDELPKTNEGVKTFDLNHFIELCKGRKFAIGFQYLLDYVEYMSTRYTQTSTECKAFLGNIIFNMIVLMGNLKYDVKELEREKYHYFATINAAKNVREATDCFYQFLEVTKQIISVYSNEGSSSIQKMLAYIEEHHSEPLSLSQLANYFHFNPSYLSAYFRQHHDEGFSEYLNKVRIRKAKEWLKSSTIPISEIYALVGYSDHSYFCKVFKKRTGMPPSRYRRENAEGHHHHHH” the value was “soluble”; for “MSLNVMYKNSCPNCGGDISGDRLLNGLPCEACLPYINGIDDVDHISKVKTLYNILLNNDKIKNYWNLYYNITTFETVFKYFRDKTGYEPWSLQKLWLRRLASNQSFTMSAPTGLGKTTTLMTYSVFIGQDVVYIVPTKSLMEQVCKRLEKLGAQVSCGKIDQKKVSVITISYLNKNADSIVSLKPNFVVIDDADAVIKSGKTTDRLVSLLGIPKDVYESAIQLIRLRNKYYFSNEYTEEVKEKIRELELKIAEFKDKISQLVIASATIRPKGIKQKALRLLTGFEPSSIQLYARNIIDAYTENLDLSIVKELGSGGLILVSKEYGRSKLNEIKKYVEDLGFNAKLAISGRKFLDDFSQGKVDILVGSASYYGVAVRGIDEPKRLKYVIYYGVPKIRAKLFDALSNPFTLLRVGKLIGIDFSKLQNKILILNPSEVQLLKFSIIKGEGHHHHHH”, “not soluble”.

The record behind these values is the DeepSol protein solubility set.
